These results are taken from the supplement of paper PMC10567573.

The data set is described as follows: protein stability index of a GFP-peptide fusion (GPS, HEK-293T) (PSI 1-6); higher = more stable. The conditions noted are these: c terminus: a fixed tail appended.

± gives the standard deviation.
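Further: 24-mer peptide tiles fused after GFP, lentivirally expressed, FACS-sorted into six equal bins by GFP/DsRed ratio, decoded by Illumina sequencing, PSI is the read-weighted mean bin number.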

QQKLVIDTVTEVTARMEMLIEELY [CBY2]: the protein stability index (treatment: DMSO) came out at 2.55 ± 0.26 and the protein stability index (treatment: MLN4924 1 uM, 8 h) amounted to 2.7 ± 0.42.
Consider QRLLNTPRRKKLKSTSKYIYQTLF [GMCL1], for which the protein stability index is 2.08 ± 0.73 (treatment: DMSO) and 1.75 ± 0.46 (treatment: MLN4924 1 uM, 8 h).
The matching figures for QSRGVPAVSESYSAPGACEEPTER [FBXO34]: 5.49 ± 0.18 and 5.49 ± 0.18.
The corresponding values for QSSFNSLQRVPSYDSFDSEDYPAA [ETS1] are 4.92 ± 0.28 and 4.93 ± 0.21.
The matching figures for QSSLLETLYRNRSNLETIFRIIDS [PPEF2]: 2.17 ± 0.25 and 2.15 ± 0.1.
QSYKDLCERHEKGVLHKHQRALHK [SNX8]: the protein stability index was determined as 3.95 ± 0.2 (treatment: DMSO) and 3.92 ± 0.37 (treatment: MLN4924 1 uM, 8 h).
As for QTDHIKGIRQITSDDFCTFQMVLE [GFOD1], the protein stability index reads like this: (treatment: DMSO) 2.69 ± 0.28; (treatment: MLN4924 1 uM, 8 h) 2.8 ± 0.25.
The corresponding values for QTLLGTAKMLLHEGQHPAQLRSDV [PYCR3] are 3.28 ± 0.094 and 3.16 ± 0.39.
The corresponding values for QTPQVNINPFTPDSLLLHSSGQCR [WEE1] are 3.6 ± 0.24 and 3.86 ± 0.34.
The corresponding values for QTSSSTFGGGSTRGGSLLAGGGGF [KRT15] are 3.57 ± 0.17 and 3.7 ± 0.23.
With QVKKTTTRWCHIVRDSDSLAESEF [PHTF1], the protein stability index turned out to be 3.44 ± 0.36 (treatment: DMSO) and 3.67 ± 0.25 (treatment: MLN4924 1 uM, 8 h).
The matching figures for QVLVKDFTFEGFSRLRFLNLGRMI [ZER1]: 2.07 ± 0.22 and 2.08 ± 0.23.
The corresponding values for QYSGMLDCARRILAREGVAAFYKG [SLC25A25] are 2.38 ± 0.34 and 2.23 ± 0.055.
The matching figures for RAKCRNMEHALREKAKAFWAMRRS [TRIM35]: 2.09 ± 0.36 and 2.3 ± 0.34.
Take RAVRDRNLLRDDRVLQNLLTIEER [CCND2]: the protein stability index by setting is: (treatment: DMSO) 3.91 ± 0.21; (treatment: MLN4924 1 uM, 8 h) 3.89 ± 0.17.
The corresponding values for RDHSVRVLISNHVTPFDHNIVNLL [AUP1] are 2.1 ± 0.16 and 2.12 ± 0.31.
The corresponding values for RDKARLLREKVEFLRSLRQMKQKV [NFE2L1] are 2.73 ± 0.15 and 3.14 ± 0.37.
REIALAKKHGTQNKRAALQALKRK [CHMP4C] yielded a protein stability index (treatment: DMSO) of 4.04 ± 0.14 and a protein stability index (treatment: MLN4924 1 uM, 8 h) of 4.29 ± 0.39.
Sequence REPQEDSQKDLENDPSVNSQAQET [TOR1AIP2] had a protein stability index (treatment: DMSO) of 5.68 ± 0.15 and a protein stability index (treatment: MLN4924 1 uM, 8 h) of 5.61 ± 0.2.
For REVSSYPSTVGAEAQEEFLRVLGS [DFFB], the protein stability index amounted to 4.33 ± 0.22 (treatment: DMSO) and 4.23 ± 0.16 (treatment: MLN4924 1 uM, 8 h).
For the sequence RFALIPAPELVERVQSVDFMRTDP [KLHL14], the protein stability index by setting is: (treatment: DMSO) 3.26 ± 0.17; (treatment: MLN4924 1 uM, 8 h) 3.26 ± 0.18.
The sequence RFLLKETLNQLQSLQNSLECAMET [NECAB1] returned a protein stability index (treatment: DMSO) of 2.29 ± 0.4 and a protein stability index (treatment: MLN4924 1 uM, 8 h) of 2.31 ± 0.41.
The matching figures for RFTAESYTVLGDTLIDGGEHYWEV [FSD1]: 2.23 ± 0.3 and 2.5 ± 0.43.
In the case of RGFCAFLGSWLVPFAYLTVLDLSK [POMT2], the protein stability index came out at 3.24 ± 0.7 (treatment: DMSO) and 3.16 ± 0.25 (treatment: MLN4924 1 uM, 8 h).
As for RGVRRTASTPTPDDKLFQKLAKVY [CPN1], the protein stability index is, setting by setting: (treatment: DMSO) 2.61 ± 0.29; (treatment: MLN4924 1 uM, 8 h) 2.86 ± 0.27.
RGYWGDIATGPFVAFGIEADDESL [DNAAF3]: the protein stability index is 3.65 ± 0.22 (treatment: DMSO) and 3.65 ± 0.43 (treatment: MLN4924 1 uM, 8 h).
Consider RHRLRWHSFQSSHRPSLNSVSLQI [DLC1], for which the protein stability index by setting is: (treatment: DMSO) 2.41 ± 0.1; (treatment: MLN4924 1 uM, 8 h) 2.58 ± 0.097.
As to RIATETDQIGSEIIEELGEQRDQL [VTI1B], the protein stability index (treatment: DMSO) was 5.38 ± 0.2 and the protein stability index (treatment: MLN4924 1 uM, 8 h) was determined as 5.37 ± 0.14.
The corresponding values for RIIDKPRVIEVLPRGATAAVLAPD [SEPHS2] are 3.88 ± 0.23 and 4.08 ± 0.068.
With RIKGVEVFCPLDPPPPYEAVVSQM [FAM189A2], the protein stability index (treatment: DMSO) was determined as 2.83 ± 0.33 and the protein stability index (treatment: MLN4924 1 uM, 8 h) amounted to 2.88 ± 0.22.
The matching figures for RKDVGCNRFEVTLEKSNKNFSKKI [VPS39]: 3.62 ± 0.22 and 3.98 ± 0.2.
The matching figures for RKEMATILSKMPKPKPPPNSEGEQ [CCNC]: 5.06 ± 0.34 and 5.06 ± 0.19.
Regarding RKRIHDSRVAGFNPALQLILTRTD [TOR1AIP2], the protein stability index (treatment: DMSO) is 4.2 ± 0.17 and the protein stability index (treatment: MLN4924 1 uM, 8 h) is 4.18 ± 0.19.
For RKRLAREMQLSEVQIKTWFQNRRM [VENTX], the protein stability index by setting is: (treatment: DMSO) 2.67 ± 0.24; (treatment: MLN4924 1 uM, 8 h) 2.73 ± 0.41.
The corresponding values for RLALEKVPKVGQRFNRIGLPPKVG [PI4K2A] are 3.23 ± 0.3 and 3.21 ± 0.097.
The corresponding values for RLASYLDKVRALEEANADLEVKIR [KRT16] are 2.39 ± 0.26 and 2.59 ± 0.5.
Turning to RLATVHMSRMINKYKRRRFQKTKN [CLPTM1], the protein stability index runs as follows: (treatment: DMSO) 3.16 ± 0.36; (treatment: MLN4924 1 uM, 8 h) 3.54 ± 0.49.
The matching figures for RLCRLAGASSPAAYDEALAELHAH [ZSWIM9]: 3.29 ± 0.36 and 3.33 ± 0.2.
The matching figures for RLEPLEHRRRTICGTPNYLSPEVL [PLK2]: 3.55 ± 0.19 and 3.67 ± 0.1.
The matching figures for RLQQLRRLRGLLRVLRGRPGAGSR [FBXO33]: 2.36 ± 0.21 and 2.66 ± 0.62.
Turning to RLQRKLVEPKHCFTSPDYQQQCHE [SDE2], the protein stability index runs as follows: (treatment: DMSO) 3.67 ± 0.2; (treatment: MLN4924 1 uM, 8 h) 3.69 ± 0.2.
RLSKELLAEYQDLTFLTKQEILLA [CIB1]: the protein stability index runs as follows: (treatment: DMSO) 2.16 ± 0.17; (treatment: MLN4924 1 uM, 8 h) 2.11 ± 0.22.
The matching figures for RLWSLSYTKLPSSLQSTGKCLLYC [SLC25A39]: 2.78 ± 0.62 and 2.73 ± 0.52.
Take RMLTDKEREMAEIRDQMQQQLNDY [LMNB1]: the protein stability index runs as follows: (treatment: DMSO) 4.93 ± 0.3; (treatment: MLN4924 1 uM, 8 h) 5.08 ± 0.19.
The corresponding values for RMSEDKPQDYKKRLSVELTSSLFR [CTNNB1] are 3.4 ± 0.1 and 3.42 ± 0.25.
Consider RNDKIKHVQNQVDEVIDVMQENIT [VAMP4], for which the protein stability index is, setting by setting: (treatment: DMSO) 4.51 ± 0.33; (treatment: MLN4924 1 uM, 8 h) 4.4 ± 0.98.
Turning to RNLQDLARIYIRRTLRNFINDEMQ [PCMTD1], the protein stability index reads like this: (treatment: DMSO) 2.07 ± 0.18; (treatment: MLN4924 1 uM, 8 h) 2.49 ± 0.69.
As to RNTKRDVTLEASRENSKPRAILKP [PPP2R2B], the protein stability index amounted to 4.44 ± 0.47 (treatment: DMSO) and 4.79 ± 0.056 (treatment: MLN4924 1 uM, 8 h).
The matching figures for RPCRKFLLTGQCDFGSNCRFSHMS [ZMAT5]: 4.2 ± 0.74 and 4.28 ± 0.58.
Regarding RPVAPRRPRDAVGQRGAQGAGRRR [SMAD6], the protein stability index runs as follows: (treatment: DMSO) 5.27 ± 0.23; (treatment: MLN4924 1 uM, 8 h) 5.43 ± 0.14.
The corresponding values for RQERVSLYPFQIHSIALSTFASLI [CDS1] are 3.04 ± 0.61 and 2.92 ± 0.49.
The matching figures for RQLTKPRPVILDPADPTGNLGGGD [OAS1]: 4.65 ± 0.23 and 4.48 ± 0.31.
Regarding RQLVEADINGLRRILDELTLCKAD [KRT36], the protein stability index by setting is: (treatment: DMSO) 3.2 ± 0.24; (treatment: MLN4924 1 uM, 8 h) 3.32 ± 0.26.
RQRFRHLRYQETPGPREALSQLRV [ZNF232] registered a protein stability index (treatment: DMSO) of 3.13 ± 0.27 and a protein stability index (treatment: MLN4924 1 uM, 8 h) of 3.39 ± 0.28.
Consider RRASICCTQLGSLSALKHAVLGLY [SCARA5], for which the protein stability index (treatment: DMSO) was 2.44 ± 0.38 and the protein stability index (treatment: MLN4924 1 uM, 8 h) stood at 2.07 ± 0.28.
On to RRFLLCLYLVGFLDLFGVSMVVPL [MFSD9], for which the protein stability index reads like this: (treatment: DMSO) 2.91 ± 0.57; (treatment: MLN4924 1 uM, 8 h) 3.4 ± 0.17.
Consider RRHCQACRLKRCVDIGMMKEFILT [VDR], for which the protein stability index reads like this: (treatment: DMSO) 2.77 ± 0.72; (treatment: MLN4924 1 uM, 8 h) 2.15 ± 0.28.
The matching figures for RRHPQGAWKELDRNYLNYGEEGAP [CHGB]: 4.05 ± 0.28 and 4.1 ± 0.34.
In the case of RRILDELTLCRSDLEAQMESLKEE [KRT33B], the protein stability index is 4.56 ± 0.14 (treatment: DMSO) and 4.66 ± 0.11 (treatment: MLN4924 1 uM, 8 h).
The matching figures for RRLGLSTLGELKQNLSRSWHDVQV [TPD52L2]: 2.9 ± 0.24 and 2.96 ± 0.24.
The corresponding values for RSKIYLRFLDYEMQNSNECKRNFV [NETO1] are 2.1 ± 0.2 and 2.28 ± 0.091.
The corresponding values for RSRLRPRDDLDRLGVFLDYEAGVL [TRIM14] are 2.47 ± 0.4 and 2.59 ± 0.48.
Regarding RTTKPMAQRSAHCSRPSGSSSSSG [CSNK1G1], the protein stability index by setting is: (treatment: DMSO) 4.39 ± 0.18; (treatment: MLN4924 1 uM, 8 h) 4.43 ± 0.2.
Regarding RVIMIVTDGRPQDSVAEVAAKARD [MATN2], the protein stability index is, setting by setting: (treatment: DMSO) 3.165 ± 0.024; (treatment: MLN4924 1 uM, 8 h) 2.76 ± 0.6.
With RVSDVQKVLQGGEQEIQFEDFTNT [PKD2L1], the protein stability index runs as follows: (treatment: DMSO) 4.8 ± 0.6; (treatment: MLN4924 1 uM, 8 h) 4.85 ± 0.36.
The corresponding values for RYGCGHRGCGDGCCCPSCYRRYRF [KRTAP19-2] are 3.29 ± 0.27 and 3.62 ± 0.54.
The corresponding values for RYQKYGYIGTHEYPHFSHRPSTLQ [OAS1] are 2.18 ± 0.14 and 2.45 ± 0.15.
The corresponding values for SAAGHLDVVRSLLRRGASVNRTTR [FEM1A] are 3.5 ± 0.33 and 3.75 ± 0.33.
Consider SALTLACYKGHLEMVRFLLEAGAD [ANKRD17], for which the protein stability index is, setting by setting: (treatment: DMSO) 3.08 ± 0.31; (treatment: MLN4924 1 uM, 8 h) 2.69 ± 0.24.
The matching figures for SAVLFYVNMYVSIVFFGLISFDRY [P2RY14]: 3.04 ± 0.35 and 3.22 ± 0.36.
For the sequence SDDNAKLPCFNGRVVSWLVSAEGS [DVL3], the protein stability index (treatment: DMSO) amounted to 3.07 ± 0.19 and the protein stability index (treatment: MLN4924 1 uM, 8 h) turned out to be 3.06 ± 0.26.
Take SDNSGQVSPPESPTVTTSWQSESL [BCL2L13]: the protein stability index (treatment: DMSO) is 5.13 ± 0.2 and the protein stability index (treatment: MLN4924 1 uM, 8 h) stood at 5.02 ± 0.23.
